From patent US12194080B2, “Methods for identification, assessment, prevention, and treatment of metabolic disorders using PM20D1 and N-lipidated amino acids” (Dana-Farber Cancer Institute, Inc., priority 2015, dated 2025)
Entries after “also recorded” stand apart in the source; their conditions may differ.

Assays:
mouse PM20D1 [1] = molecular target: T1, mouse PM20D1 (Mus musculus, UniProt Q8C165); experiment: In vitro PM20D1-catalyzed synthesis of N-acyl amino acids; type: biochemical; details: PBS, 37° C., 1.5 h
T1 construct: Full-length mouse Pm20d1 cDNA (GE Dharmacon) was subcloned with an in-frame C-terminal 6× His and FLAG® tag; made in house; host or cells: 293A (HEK293A) cells stably infected with retrovirus
T1 sequence (Q8C165 25-503): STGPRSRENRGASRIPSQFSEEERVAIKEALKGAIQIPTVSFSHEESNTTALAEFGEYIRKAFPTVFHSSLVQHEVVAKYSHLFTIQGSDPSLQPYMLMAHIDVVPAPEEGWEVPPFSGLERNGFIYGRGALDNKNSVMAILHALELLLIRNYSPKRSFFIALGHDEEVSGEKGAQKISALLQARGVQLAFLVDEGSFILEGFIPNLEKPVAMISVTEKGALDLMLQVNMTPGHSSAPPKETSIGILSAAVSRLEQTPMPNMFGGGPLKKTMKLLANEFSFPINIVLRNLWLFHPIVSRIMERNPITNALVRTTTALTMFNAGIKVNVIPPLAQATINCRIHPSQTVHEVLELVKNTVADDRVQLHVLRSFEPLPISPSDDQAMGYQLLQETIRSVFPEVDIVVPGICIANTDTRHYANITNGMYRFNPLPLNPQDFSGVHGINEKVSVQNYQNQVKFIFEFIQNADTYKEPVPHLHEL
Protocol: (§1) The concentrated media was centrifuged to remove debris (600×g, 10 min, 4° C.) and the supernatant containing PM20D1-flag was decanted into a new tube. PM20D1-Flag was immunoaffinity purified overnight at 4° C. from the concentrated media using magnetic Flag-M2 beads (Sigma Aldrich). The beads were collected, washed three times in PBS, eluted with 3× Flag peptide ([…] in PBS, Sigma Aldrich), aliquoted, and stored at −80° C. For the purification of human PM20D1-flag, hPM20D1-flag plasmid (Origene) was transiently transfected into 293A cells. After two days, the media was changed, harvested 24 h later, concentrated, and purified exactly as described above.
(§2) In vitro PM20D1-catalyzed synthesis of N-acyl amino acids was measured by incubating purified PM20D1 protein with oleate (1.5 mM) and phenylalanine (0.1 mM) in PBS (to 100 μl final volume) at 37° C. for 1.5 hrs. In vitro PM20D1-catalyzed N-acyl amino acid hydrolysis was measured by incubating purified PM20D1 protein with the indicated N-acyl amino acid (0.1 mM) in PBS (to 100 μl final volume) at 37° C. for 1.5 hrs. Reactions were terminated by placing the vials at −80° C. and the products generated in vitro were analyzed by mass spectroscopy (MS).
(§3) Briefly, frozen serum (30 μl) for polar metabolomic analyses were extracted in 160 μl of 1:1 acetonitrile/methanol with inclusion of internal standard D3, ^15N-serine (1 nmol). Activity assays (100 μl) were extracted in 400 μl 1:1 acetonitrile/methanol. Following 30 s of thorough vortexing and 1 min of bath sonication, the polar metabolite fraction (supernatant) was isolated by centrifugation at 13,000×g for 10 min. Ten μl of this supernatant was analyzed by SRM-based targeted LC-MS/MS, or untargeted LC-MS.
(§4) For separation of polar metabolites, normal-phase chromatography was performed with a […] column (50 mm×4.60 mm, Phenomenex). Mobile phases were as follows: Buffer A, acetonitrile; Buffer B, 95:5 water/acetonitrile with 0.1% formic acid or 0.2% ammonium hydroxide with 50 mM ammonium acetate for positive and negative ionization mode, respectively. The flow rate for each run started at 0.2 ml/min for 2 min, followed by a gradient starting at 0% B and increasing linearly to 100% B over the course of 15 min with a flow rate of 0.7 ml/min, followed by an isocratic gradient of 100% B for 10 min at 0.7 ml/min before equilibrating for 5 min at 0% B with a flow rate of 0.7 ml/min. MS analysis was performed with an electrospray ionization (ESI) source on an Agilent 6430 QQQ LC—MS/MS. The capillary voltage was set to 3.5 kV, and the fragmentor voltage was set to 100 V. The drying gas temperature was 325° C., the drying gas flow rate was 10 l/min, and the nebulizer pressure was 45 psi. For polar targeted and untargeted metabolomic analysis, representative metabolites were quantified by SRM of the transition from precursor to product ions (corresponding to amino acid fragment) at associated collision energies. Several representative fragmentation ions are as follows: C18:1-Ala, 352>88; C18:1-Gly, 338>74; C18:1-Phe, 428>164; C18:1-Leu/Ile, 394>130; C20:4-Phe, 450>164; C20:4-Leu/Ile, 416>130. Untargeted LC-MS was performed by scanning a mass range of m/z 50-1200, and data were exported as mzdata files and uploaded to XCMSOnline (xcmsserver.nutr.berkeley.edu) to identify metabolites that were differentially changed. For targeted metabolomics analysis, metabolites were quantified by integrating the area under the peak and were normalized to internal standard values corresponding to 1 nmol D3, ^15N-serine.

mouse PM20D1 [2] = molecular target: T1, mouse PM20D1; experiment: In vitro PM20D1-catalyzed N-acyl amino acid hydrolysis; type: biochemical; details: PBS, 37° C., 1.5 h
Protocol: as §1, §2, §3, §4

APOA1 = experiment: FLAG immunoprecipitation of PM20D1-flag from primary brown fat cells with mass spectrometry identification; type: binding, mouse
Source text: The mass spectrometry identification of the indicated proteins (PM20D1 or APOA1) are indicated to the right of the gel.

B1: PM20D1: purified recombinant C-terminal 6xHis/flag-tagged mouse peptidase M20 domain containing 1, a secreted enzyme (protein, listed as Homo sapiens)
chain: MAQRCVCVLALVAMLLLVFPTVSRSMGPRSGEHQRASRIPSQFSKEERVAMKEALKGAIQIPTVTFSSEKSNTTALAEFGKYIHKVFPTVVSTSFIQHEVVEEYSHLFTIQGSDPSLQPYLLMAHFDVVPAPEEGWEVPPFSGLERDGIIYGRGTLDDKNSVMALLQALELLLIRKYIPRRSFFISLGHDEESSGTGAQRISALLQSRGVQLAFIVDEGGFILDDFIPNFKKPIALIAVSEKGSMNLMLQVNMTSGHSSAPPKETSIGILAAAVSRLEQTPMPIIFGSGTVVTVLQQLANEFPFPVNIILSNPWLFEPLISRFMERNPLTNAIIRTTTALTIFKAGVKFNVIPPVAQATVNFRIHPGQTVQEVLELTKNIVADNRVQFHVLSAFDPLPVSPSDDKALGYQLLRQTVQSVFPEVNITAPVTSIGNTDSRFFTNLTTGIYRFYPIYIQPEDFKRIHGVNEKISVQAYETQVKFIFELIQNADTDQEPVSHLHKL
modifications: C-terminal 6xHis/flag tag
notes: purified recombinant C-terminal 6xHis/flag-tagged mouse peptidase M20 domain containing 1, a secreted enzyme
Q: How did the “conversion in the synthase direction” value (mouse PM20D1 [1]; oleate 1.5 mM, Phe 100 μM, n=3) turn out when B1 was run?
A: The value was 1.2±0.1%.

Q: And the “N-acyl amino acid synthase activity” value (mouse PM20D1 [1]; oleate and Phe as substrates)?
A: Its value is “Significant formation of C18:1-Phe; also recorded: possessed enzymatic activity”.

Q: And the “conversion in the hydrolase direction” value (mouse PM20D1 [2]; C18:1-Phe 100 μM, n=3)?
A: The value was 94.0±0.8%.

Q: And the “N-acyl amino acid hydrolase activity” value (mouse PM20D1 [2]; C18:1-Phe as substrate)?
A: Its value is “possessed enzymatic activity”.

Q: What about the “interaction with apolipoprotein 1 (APOA1)” value (APOA1) of the same molecule?
A: The value was “interacts with apolipoprotein 1 (APOA1)”.
